Test results: US20220268788A1
Values belong to the binder of their own block, whether it stands above or below them. bromoacetamide scaffold with biotin = not defined here

Experiments:
Assay in all cases: immunoprecipitation with HCDR3 construct, number of peptides identified by mass spectrometry
[1] = target: T1, Succinate--CoA ligase [ADP-forming] subunit beta, mitochondrial (mouse) (UniProt Q9Z2I9)
T1 sequence (looked up): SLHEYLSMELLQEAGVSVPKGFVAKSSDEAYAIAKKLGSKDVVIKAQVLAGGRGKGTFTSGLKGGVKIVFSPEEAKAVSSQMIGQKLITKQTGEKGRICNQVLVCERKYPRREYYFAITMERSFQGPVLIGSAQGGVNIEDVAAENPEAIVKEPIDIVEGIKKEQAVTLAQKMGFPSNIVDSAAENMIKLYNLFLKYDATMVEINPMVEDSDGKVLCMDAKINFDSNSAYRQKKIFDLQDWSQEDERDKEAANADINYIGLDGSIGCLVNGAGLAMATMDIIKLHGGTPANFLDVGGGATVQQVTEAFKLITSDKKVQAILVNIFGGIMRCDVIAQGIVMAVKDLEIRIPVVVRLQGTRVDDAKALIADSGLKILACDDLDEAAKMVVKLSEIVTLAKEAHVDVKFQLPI

[2] = target: T2, citrate synthase, mitochondrial (mouse) (UniProt Q9CZU6)
T2 sequence (looked up): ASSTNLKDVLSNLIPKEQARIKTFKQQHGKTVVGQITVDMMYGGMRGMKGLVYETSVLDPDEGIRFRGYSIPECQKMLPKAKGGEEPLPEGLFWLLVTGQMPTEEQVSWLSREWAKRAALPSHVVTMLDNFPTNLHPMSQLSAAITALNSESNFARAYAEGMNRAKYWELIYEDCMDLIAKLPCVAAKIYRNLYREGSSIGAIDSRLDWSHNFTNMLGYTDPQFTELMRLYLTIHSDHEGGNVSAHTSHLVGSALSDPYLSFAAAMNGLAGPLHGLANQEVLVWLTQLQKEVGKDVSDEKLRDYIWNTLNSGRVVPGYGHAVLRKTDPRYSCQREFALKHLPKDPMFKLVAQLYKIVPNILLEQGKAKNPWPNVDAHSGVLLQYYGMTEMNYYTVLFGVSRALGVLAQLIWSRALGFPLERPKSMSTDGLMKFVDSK

[3] = target: 78 kDa glucose-regulated protein (mouse) (UniProt P20029)
[4] = target: Heat shock cognate 71 kDa protein (mouse) (UniProt P63017)
Heat shock cognate 71 kDa protein (mouse), sequence (P63017 2-646 limits assumed): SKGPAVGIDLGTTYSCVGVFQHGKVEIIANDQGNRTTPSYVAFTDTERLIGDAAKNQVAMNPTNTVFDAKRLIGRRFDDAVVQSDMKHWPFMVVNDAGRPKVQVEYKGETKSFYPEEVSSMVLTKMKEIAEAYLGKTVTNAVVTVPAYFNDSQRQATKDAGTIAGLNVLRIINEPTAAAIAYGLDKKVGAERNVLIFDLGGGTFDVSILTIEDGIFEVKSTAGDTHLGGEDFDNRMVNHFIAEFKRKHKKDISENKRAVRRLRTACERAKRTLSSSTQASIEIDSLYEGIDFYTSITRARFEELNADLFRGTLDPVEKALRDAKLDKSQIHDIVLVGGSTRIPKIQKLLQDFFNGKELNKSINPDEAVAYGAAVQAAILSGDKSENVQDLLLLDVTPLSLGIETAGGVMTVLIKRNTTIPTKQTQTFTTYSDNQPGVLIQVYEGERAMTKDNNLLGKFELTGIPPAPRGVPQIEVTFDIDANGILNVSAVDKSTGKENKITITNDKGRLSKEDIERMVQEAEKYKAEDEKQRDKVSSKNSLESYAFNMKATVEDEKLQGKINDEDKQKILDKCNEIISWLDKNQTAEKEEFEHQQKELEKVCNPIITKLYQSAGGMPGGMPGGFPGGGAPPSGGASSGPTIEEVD

78 kDa glucose-regulated protein (mouse), sequence (P20029 20-655 limits assumed): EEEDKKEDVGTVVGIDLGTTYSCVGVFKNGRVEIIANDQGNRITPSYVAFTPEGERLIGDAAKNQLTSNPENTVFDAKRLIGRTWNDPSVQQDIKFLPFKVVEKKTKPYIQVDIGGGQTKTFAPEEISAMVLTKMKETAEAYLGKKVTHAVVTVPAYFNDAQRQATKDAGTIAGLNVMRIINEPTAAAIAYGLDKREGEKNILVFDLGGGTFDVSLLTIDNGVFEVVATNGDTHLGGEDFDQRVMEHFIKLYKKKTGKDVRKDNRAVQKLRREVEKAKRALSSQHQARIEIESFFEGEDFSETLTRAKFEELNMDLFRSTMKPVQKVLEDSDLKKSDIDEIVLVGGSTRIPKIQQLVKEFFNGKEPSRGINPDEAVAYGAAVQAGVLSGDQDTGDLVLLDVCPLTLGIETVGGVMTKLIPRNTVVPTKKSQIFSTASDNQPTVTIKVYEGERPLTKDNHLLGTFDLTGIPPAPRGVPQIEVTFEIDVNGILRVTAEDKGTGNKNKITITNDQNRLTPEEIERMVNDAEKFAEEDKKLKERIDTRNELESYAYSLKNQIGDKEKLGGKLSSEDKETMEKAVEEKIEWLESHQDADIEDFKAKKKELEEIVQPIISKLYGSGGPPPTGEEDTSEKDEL

# Peptides [1]: 4 peptides | # Peptides [2]: 3 peptides
B1: Acute-2 construct (A2), biotinylated cyclic HCDR3 construct (peptide, part only; not given: biotin scaffold, part only)
peptide: Ac-SLYGSSRHTAPISF-NH2
modifications: linker (positions not given here) via bromoacetamide scaffold with biotin; reading uncertain; also: biotinylated bromoacetamide scaffold cyclization, attachment sites not given here

# Peptides [3]: 6 peptides | # Peptides [4]: 6 peptides
B2: subacute-1 construct (SA1), biotinylated cyclic HCDR3 construct (peptide, part only; not given: biotin scaffold, part only)
peptide: Ac-TDLAVAHPVRY-NH2
modifications: linker (positions not given here) via bromoacetamide scaffold with biotin; reading uncertain; also: biotinylated bromoacetamide scaffold cyclization, attachment sites not given here
